# Source: patent publication US20250368745A1 (published 2025)
# Changes are numbered by the printed parent chain. Names and notes keep the numbering of the source.
# T1: human IL-18BP (human, UniProt O95998 31-194)
# T1 construct: UniProt printed as 095998; also called hIL-18BP
# T1 sequence: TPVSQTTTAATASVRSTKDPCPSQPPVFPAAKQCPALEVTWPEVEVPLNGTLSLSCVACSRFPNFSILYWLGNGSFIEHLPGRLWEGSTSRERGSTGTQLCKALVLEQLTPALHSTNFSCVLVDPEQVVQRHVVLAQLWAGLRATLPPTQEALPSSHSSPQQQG
# T2: cynomolgus IL-18BP (cynomolgus monkey)
# T2 construct: also called cyno IL-18BP; cyIL-18BP
# T2 chain: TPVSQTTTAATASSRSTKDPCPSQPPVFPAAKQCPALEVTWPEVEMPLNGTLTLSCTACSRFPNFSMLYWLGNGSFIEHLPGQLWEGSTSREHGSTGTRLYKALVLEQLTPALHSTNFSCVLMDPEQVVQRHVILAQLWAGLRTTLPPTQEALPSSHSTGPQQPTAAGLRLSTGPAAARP
# B1: SA301a HC-G97A (antibody, name in Kabat numbering, V domains shown)
# VH: QVQLQESGPGLVKPSQTLSLTCTVSGYSITSDYNSHWIRQPPGKGLEWIGYIHYSGSTNYNPSLKSRVTISRDTSKNQFSLKLSSVTAADTAVYYCARNYASIYVNYFDYWGQGTLVTVSS
# VL: EIVLTQSPATLSLSPGERATLSCSASSSVSYMYWYQQKPGQAPRPLIYRTSNLASGIPARFSGSGSGTDFTLTISSLEPEDFAVYYCQQYHSYPTFGGGTKVEIK
# notes: IgG1 kappa
# B2: SA301a HC-G97N (antibody, name in Kabat numbering, V domains shown)
# VH: B1 VH with A101N
# VL: B1 VL
# notes: IgG1 kappa
# B3: SA301a HC-G97M (antibody, name in Kabat numbering, V domains shown)
# VH: B1 VH with A101M
# VL: B1 VL
# notes: IgG1 kappa
# B4: SA301a HC-S98I (antibody, name in Kabat numbering, V domains shown)
# VH: B1 VH with A101G, S102I
# VL: B1 VL
# notes: IgG1 kappa
# B5: SA301a HC-S98G (antibody, name in Kabat numbering, V domains shown)
# VH: B1 VH with A101G, S102G
# VL: B1 VL
# notes: IgG1 kappa
# B6: SA301a HC-G97K (antibody, name in Kabat numbering, V domains shown)
# VH: B1 VH with A101K
# VL: B1 VL
# notes: IgG1 kappa
# B7: SA301a HC-G97I (antibody, name in Kabat numbering, V domains shown)
# VH: B1 VH with A101I
# VL: B1 VL
# notes: IgG1 kappa
# B8: SA301a HC-S98K (antibody, name in Kabat numbering, V domains shown)
# VH: B1 VH with A101G, S102K
# VL: B1 VL
# notes: IgG1 kappa
# B9: SA301a HC-S98Y (antibody, name in Kabat numbering, V domains shown)
# VH: B1 VH with A101G, S102Y
# VL: B1 VL
# notes: IgG1 kappa
# B10: SA301a HC-G97Q (antibody, name in Kabat numbering, V domains shown)
# VH: B1 VH with A101Q
# VL: B1 VL
# notes: IgG1 kappa
# B11: SA301a HC-N95A (antibody, name in Kabat numbering, V domains shown)
# VH: B1 VH with N99A, A101G
# VL: B1 VL
# notes: IgG1 kappa
# B12: SA301a HC-Y96A (antibody, name in Kabat numbering, V domains shown)
# VH: B1 VH with Y100A, A101G
# VL: B1 VL
# notes: IgG1 kappa
# B13: SA301a HC-Y96F (antibody, name in Kabat numbering, V domains shown)
# VH: B1 VH with Y100F, A101G
# VL: B1 VL
# notes: IgG1 kappa
# B14: SA301a HC-G97E (antibody, name in Kabat numbering, V domains shown)
# VH: B1 VH with A101E
# VL: B1 VL
# notes: IgG1 kappa
# B15: SA301a HC-Y96Q (antibody, name in Kabat numbering, V domains shown)
# VH: B1 VH with Y100Q, A101G
# VL: B1 VL
# notes: IgG1 kappa
# B16: SA301a HC-G97P (antibody, name in Kabat numbering, V domains shown)
# VH: B1 VH with A101P
# VL: B1 VL
# notes: IgG1 kappa
# B17: SA301a HC-Y96K (antibody, name in Kabat numbering, V domains shown)
# VH: B1 VH with Y100K, A101G
# VL: B1 VL
# notes: IgG1 kappa
# B18: SA301a HC-G97D (antibody, name in Kabat numbering, V domains shown)
# VH: B1 VH with A101D
# VL: B1 VL
# notes: IgG1 kappa
# B19: SA301a HC-Y96I (antibody, name in Kabat numbering, V domains shown)
# VH: B1 VH with Y100I, A101G
# VL: B1 VL
# notes: IgG1 kappa
# B20: SA301a HC-N95R (antibody, name in Kabat numbering, V domains shown)
# VH: B1 VH with N99R, A101G
# VL: B1 VL
# notes: IgG1 kappa
# B21: SA301a HC-Y96E (antibody, name in Kabat numbering, V domains shown)
# VH: B1 VH with Y100E, A101G
# VL: B1 VL
# notes: IgG1 kappa
# B22: SA301a HC-S98T (antibody, name in Kabat numbering, V domains shown)
# VH: B1 VH with A101G, S102T
# VL: B1 VL
# notes: IgG1 kappa
# B23: SA301a HC-S98N (antibody, name in Kabat numbering, V domains shown)
# VH: B1 VH with A101G, S102N
# VL: B1 VL
# notes: IgG1 kappa
# B24: SA301a HC-N95G (antibody, name in Kabat numbering, V domains shown)
# VH: B1 VH with N99G, A101G
# VL: B1 VL
# notes: IgG1 kappa
# B25: SA301a HC-Y96N (antibody, name in Kabat numbering, V domains shown)
# VH: B1 VH with Y100N, A101G
# VL: B1 VL
# notes: IgG1 kappa
# B26: SA301a HC-G97T (antibody, name in Kabat numbering, V domains shown)
# VH: B1 VH with A101T
# VL: B1 VL
# notes: IgG1 kappa
# B27: SA301a HC-Y96P (antibody, name in Kabat numbering, V domains shown)
# VH: B1 VH with Y100P, A101G
# VL: B1 VL
# notes: IgG1 kappa
# B28: SA301a HC-G97L (antibody, name in Kabat numbering, V domains shown)
# VH: B1 VH with A101L
# VL: B1 VL
# notes: IgG1 kappa
# B29: SA301a HC-G97H (antibody, name in Kabat numbering, V domains shown)
# VH: B1 VH with A101H
# VL: B1 VL
# notes: IgG1 kappa
# B30: SA301a HC-S98D (antibody, name in Kabat numbering, V domains shown)
# VH: B1 VH with A101G, S102D
# VL: B1 VL
# notes: IgG1 kappa
# B31: SA301a HC-G97V (antibody, name in Kabat numbering, V domains shown)
# VH: B1 VH with A101V
# VL: B1 VL
# notes: IgG1 kappa
# B32: SA301a HC-S98H (antibody, name in Kabat numbering, V domains shown)
# VH: B1 VH with A101G, S102H
# VL: B1 VL
# notes: IgG1 kappa
# B33: SA301a HC-S98A (antibody, name in Kabat numbering, V domains shown)
# VH: B1 VH with A101G, S102A
# VL: B1 VL
# notes: IgG1 kappa
# B34: SA301a HC-Y96R (antibody, name in Kabat numbering, V domains shown)
# VH: B1 VH with Y100R, A101G
# VL: B1 VL
# notes: IgG1 kappa
# B35: SA301a HC-Y96L (antibody, name in Kabat numbering, V domains shown)
# VH: B1 VH with Y100L, A101G
# VL: B1 VL
# notes: IgG1 kappa
# B36: SA301a HC-S98P (antibody, name in Kabat numbering, V domains shown)
# VH: B1 VH with A101G, S102P
# VL: B1 VL
# notes: IgG1 kappa
# B37: SA301a HC-S98Q (antibody, name in Kabat numbering, V domains shown)
# VH: B1 VH with A101G, S102Q
# VL: B1 VL
# notes: IgG1 kappa
# B38: SA301a HC-N95Q (antibody, name in Kabat numbering, V domains shown)
# VH: B1 VH with N99Q, A101G
# VL: B1 VL
# notes: IgG1 kappa
# B39: SA301a HC-G97R (antibody, name in Kabat numbering, V domains shown)
# VH: B1 VH with A101R
# VL: B1 VL
# notes: IgG1 kappa
# B40: SA301a HC-Y96H (antibody, name in Kabat numbering, V domains shown)
# VH: B1 VH with Y100H, A101G
# VL: B1 VL
# notes: IgG1 kappa
# B41: SA301a HC-Y96G (antibody, name in Kabat numbering, V domains shown)
# VH: B1 VH with Y100G, A101G
# VL: B1 VL
# notes: IgG1 kappa
# B42: SA301a HC-G97F (antibody, name in Kabat numbering, V domains shown)
# VH: B1 VH with A101F
# VL: B1 VL
# notes: IgG1 kappa
# B43: SA301a HC-Y100K (antibody, V domains shown)
# VH: B1 VH with A101G, Y104K
# VL: B1 VL
# B44: SA301a HC-Y100A (antibody, V domains shown)
# VH: B1 VH with A101G, Y104A
# VL: B1 VL
# B45: SA301a HC-Y100E (antibody, V domains shown)
# VH: B1 VH with A101G, Y104E
# VL: B1 VL
# Biological target: T1, human IL-18BP
# Experiment: BLI, apparent KD
row,Binder,Kd [nM]
1,B1,0.44
2,B2,5.93
3,B3,0.19
4,B4,2.1
5,B5,2.57
6,B6,1.46
7,B7,7.83
8,B8,5.41
9,B9,0.02
10,B10,7.04
11,B11,46.1
12,B12,0.47
13,B13,0.13
14,B14,11.6
15,B15,0.65
16,B16,1.36
17,B17,15.2
18,B18,0.46
19,B19,4.02
20,B20,0.02
21,B21,0.31

row,Binder,Kd [nM]
1,B22,26.9
2,B23,2.98
3,B24,0.17
4,B25,2.8
5,B26,0.01
6,B27,0.46
7,B28,3.7
8,B29,1.57
9,B30,0.99
10,B31,4.96
11,B32,6.42
12,B33,2.29
13,B34,0.6
14,B35,1.08
15,B36,0.55
16,B37,12.3
17,B38,5.33
18,B39,25.1
19,B40,1.24
20,B41,2.5
21,B42,6.32

# Biological target: T1, human IL-18BP
# Experiment: BLI, apparent KD
# Remark: another data set of the same source
row,Binder,Kd [nM]
1,B43,1.49
2,B44,0.88
3,B45,0.61

# Biological target: T2, cynomolgus IL-18BP
# Experiment: BLI, apparent KD
row,Binder,Kd [nM]
1,B43,2.18
2,B44,4.17
3,B45,1.64
